From patent publication US9725518B2, “Antibodies that bind to Jagged 1” (Cancer Research Technology Limited, priority 2013, dated 2017)
Numbering of substitutions follows the chain as printed. Values belong to the molecule of their own block, whether it stands above or below them.

What was measured:
[1] = biological target: T1, N1 binding to cell surface expressed hJ1 (Homo sapiens, UniProt P78504); test: Notch binding blocking assay (FACS): N1 EGF11-13 beads staining human J1-expressing cells; parameters: key: +: Complete blocking; X: No blocking
T1 construct: cell expressed full length human J1 (hJ1; HEK293 transfectants); expressed in transfected cells; host or cells: HEK293
Experimental: To functionally identify mAbs with the capacity to disrupt the J1-N1 protein:protein interaction, hybridoma culture supernatants were tested in a FACS-based binding assay. Biotinylated soluble human N1 EGF11-13 recombinant protein was bound to avidin-coated beads and used to stain J1-expressing cells in the presence or absence of each mAb that recognised cell surface hJ1 by FACS. […] The four blocking antibodies of the invention were also able to block the binding of recombinant […] to a biotin-tagged J1 DSL-EGF3 recombinant protein in an ELISA assay (FIG. 1B). […] The four blocking mAbs of the invention were purified from serum-free culture supernatants and equal concentrations of purified antibodies were used to compare their activity in subsequent assays (unless hybridoma supernatant was specified). Sequence conservation across the DSL domain raised the possibility that the J1 mAbs may also be able to bind the Jagged 2 (J2) protein. Antibody binding specificity was initially tested by immunocytochemical labelling of cytospin samples of hJ1 and hJ2 transfectants (FIG. 2). All antibodies stained J1 transfectants but none stained the J2 transfected cells, and J2 expression in the same experiment was confirmed using a commercial anti-J2 antibody. The specificity of the purified mAbs was further investigated in mammalian cells transfected with hJ2, human Delta-like ligand 4 (hDLL4), or mJ1 (FIG. 3). Transfectants were FACS stained with 10 μg/ml of each of the four blocking mAbs.
To test the blocking efficiencies of the J1 mAbs, purified mAbs were titrated to determine the concentration required to block recombinant N1 binding to cell surface expressed hJ1. Beads coated with a bacterially-expressed N1 EGF11-13 protein were used to stain the hJ1-expressing cells in the presence of various concentrations of mAbs.
The FACS-based binding assay using biotinylated soluble human N1 EGF11-13 recombinant protein bound to avidin-coated fluorescent beads to stain J1-expressing cells was performed using a dilution series of each variant mAb to test their ability to block J1 binding to N1 by FACS (Table 7). […] Thus 12/16 J1-65D1 variants V1-12 and all J1-183D variants have the desired binding and blocking activity.
Human N1 EGF11-13 (411-526) was expressed in E. coli, refolded in vitro and labelled with purple fluorescent avidin-coated beads (Spherotech) as previously described. HEK293 cells transfected with human J1 or B16F10 cells transfected with mouse J1 were stained with N1 fluorescent beads in the presence of J1 antibody supernatants or purified antibody (murine, chimeric or humanised) diluted in HBBS/10% FCS. Cells were washed and re-suspended in staining buffer before being analysed with a FACSCalibur and data analysis with CellQuest. HEK293 cells transfected with human Jagged 2 and B16F10 cells transfected with human and mouse DLL4 were stained similarly to test blocking specificity.

MDA-MB-231 spheroids = test: Spheroid assay (3-D growth), MDA-MB-231; assay type: cell-based, human; conditions: humanised variants 5 μg/ml
Excerpt: Similar findings were also reported for the Merck anti-N1 mAbs when tested on the LS-1034 cell line. As cell-cell contact is required to activate Notch signalling a spheroid-based 3-D growth model was used to test the ability of the J1 mAbs to block tumour growth. Furthermore, the 3-D model better mimics in vivo conditions including hypoxia and acidosis, allowing evaluation of the mAbs effect in a more realistic setting. Spheroids were generated from MDA-MB-231 breast cancer cells and the ability of different concentrations of the J1-65D mAb to inhibit their growth was evaluated.
Cells were harvested and resuspended in 2.5% Matrigel (BD)-complete DMEM medium. Cell suspension was plated on low-adherence 96-well plates (Corning) (200 μl/well) and spheroids, of approximately fixed cell number (5×10^3 cells for MDA-MB-231 and MDA-MB-468 cell lines; 2×10^3 for MCF7 cells) were then generated by spinning plates at 1800 rpm for 10 minutes. The following day, pictures of the spheroids were taken (day 1) and treatments were added (mAbs were used at 10 μg/ml [5 μg/ml for humanised antibodies] while DBZ was used at the concentration of 100 nM). In some experiments Paclitaxel (1 nM) and Doxorubicin (20 nM) were used in combination with J1-65D mAb treatment. Every 2 days pictures were taken and half of the medium was replaced with fresh one containing mAb/drug. At the end of the experiment, spheroids were either lysed for RNA extraction, were processed and paraffin-embedded for immunohistochemical analysis or were dissociated by pipetting and trypsinization into single cell suspensions for FACS analysis. Spheroid size was evaluated by image analysis using ImageJ software.

[2] = Soluble aggregates of transiently expressed antibodies; assay type: physicochemical; conditions: Protein A purified antibody
Excerpt: The protein yield of these antibodies, their levels of soluble aggregates and their binding affinity to the immunogen (J1-DE3) are illustrated in (Table 6).

[3] = final antibody concentration 0.2 μg/ml
[4] = final antibody concentration 0.4 μg/ml
[5] = final antibody concentration 0.6 μg/ml
[6] = final antibody concentration 1.0 μg/ml

T1 sequence (P78504 34-1218): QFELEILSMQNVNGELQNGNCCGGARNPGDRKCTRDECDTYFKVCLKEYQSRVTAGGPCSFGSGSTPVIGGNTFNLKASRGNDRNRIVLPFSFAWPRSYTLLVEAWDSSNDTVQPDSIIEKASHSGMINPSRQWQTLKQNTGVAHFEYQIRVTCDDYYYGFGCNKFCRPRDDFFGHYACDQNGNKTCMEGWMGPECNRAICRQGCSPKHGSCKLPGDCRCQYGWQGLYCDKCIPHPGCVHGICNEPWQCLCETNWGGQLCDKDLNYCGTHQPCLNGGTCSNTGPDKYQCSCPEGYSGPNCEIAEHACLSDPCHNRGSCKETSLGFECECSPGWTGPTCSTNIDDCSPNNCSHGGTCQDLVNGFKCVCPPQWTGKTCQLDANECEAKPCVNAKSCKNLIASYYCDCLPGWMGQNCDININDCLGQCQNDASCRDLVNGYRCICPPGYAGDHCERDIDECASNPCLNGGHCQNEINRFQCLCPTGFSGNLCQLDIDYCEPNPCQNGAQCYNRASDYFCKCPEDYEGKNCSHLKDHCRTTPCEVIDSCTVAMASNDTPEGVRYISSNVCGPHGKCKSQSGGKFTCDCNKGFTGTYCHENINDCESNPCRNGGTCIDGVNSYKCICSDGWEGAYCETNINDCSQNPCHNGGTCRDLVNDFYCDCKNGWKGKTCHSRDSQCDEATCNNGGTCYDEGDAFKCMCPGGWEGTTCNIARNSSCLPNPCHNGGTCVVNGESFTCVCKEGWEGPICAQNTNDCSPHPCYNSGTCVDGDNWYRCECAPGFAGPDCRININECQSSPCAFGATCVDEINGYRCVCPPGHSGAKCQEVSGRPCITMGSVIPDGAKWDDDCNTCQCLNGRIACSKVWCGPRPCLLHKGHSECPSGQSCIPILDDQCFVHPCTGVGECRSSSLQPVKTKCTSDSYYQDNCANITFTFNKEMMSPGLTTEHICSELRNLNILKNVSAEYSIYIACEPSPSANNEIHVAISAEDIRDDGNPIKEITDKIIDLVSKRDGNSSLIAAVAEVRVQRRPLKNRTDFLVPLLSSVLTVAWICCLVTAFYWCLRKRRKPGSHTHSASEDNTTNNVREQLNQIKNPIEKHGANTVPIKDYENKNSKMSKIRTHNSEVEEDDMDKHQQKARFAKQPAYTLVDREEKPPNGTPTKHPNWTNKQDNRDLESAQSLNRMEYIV

- Blocking of Notch1 binding to cell surface Jagged 1 [1, 3]: X
- Blocking of Notch1 binding to cell surface Jagged 1 [1, 4]: + (Complete blocking)
- Blocking of Notch1 binding to cell surface Jagged 1 [1, 5]: + (Complete blocking)
- Blocking of Notch1 binding to cell surface Jagged 1 [1, 6]: + (Complete blocking)
B1: J1-183D variant 15: humanised/de-immunised J1-183D: J1-183D_VL_4 + J1-183D_VH_3 (antibody, V domains shown)
VH: QVQLVQSGAELKKPGASVKVSCKVSGYAFTDYAIHWVRQAPGQGLEWMGIINTYYGDSKYAQKFQGRVTMTVDTSTSTAYMELSSLRSEDTAVYYCARGYDGFAYWGQGTLVTVSSASTKGP
VL: DIQMTQSPSSLSASVGDRVTITCRTSENIYSYLTWYQQKPGKAPKLLIYHAKILDSGVPSRFSGSGSGTDFTLTISSLQPEDFATYYCQHHYDIPWTFGGGTKLEIKRT
- spheroid growth inhibition (MDA-MB-231 spheroids): increasingly less effect
- % soluble aggregate [2]: 2.21%

- Blocking of Notch1 binding to cell surface Jagged 1 [1, 3]: X
- Blocking of Notch1 binding to cell surface Jagged 1 [1, 4]: + (Complete blocking)
- Blocking of Notch1 binding to cell surface Jagged 1 [1, 5]: + (Complete blocking)
- Blocking of Notch1 binding to cell surface Jagged 1 [1, 6]: + (Complete blocking)
B2: J1-183D variant 12: humanised/de-immunised J1-183D: J1-183D_VL_3 + J1-183D_VH_4 (antibody, V domains shown)
VH: B1 VH with L11V, V24A, A28T
VL: B1 VL with H50N
- spheroid growth inhibition (MDA-MB-231 spheroids): increasingly less effect
- % soluble aggregate [2]: 0.66%
